The record followed here is patent US8785135B2, “Mutant G-protein coupled receptors and methods for selecting them” (Heptares Therapeutics Limited, priority 2007, dated 2014).

Numbering of substitutions follows the chain as printed. In names and notes the source's numbering stands. Read-outs that look alike come from different tables or passages of the source.

The target in one data set is βAR-m23 (Meleagris gallopavo, UniProt P07700, A282L/C116L/F327A/F338M/M90V/R68S/Y227A). Format: binding, turkey.
Data set [1] in a line: Thermostability assay of βAR34-424 and mutants (heat detergent-solubilised receptor 30 min, then [3H]-DHA binding). The note with it: heated 30 min without ligand; for Tm: turkey βAR expressed in E. coli, DDM-solubilised, [3H]-DHA binding, mean ± S.E. from duplicates.
Description: Binding assays were performed using [^3H]-dihydroalprenolol (DHA) as radioligand as described under “Methods”. Samples were heated for 30 minutes at different temperatures before the assay. […] Data points are from duplicates of one single experiment. This experiment has been repeated several times with similar results.
Expression of βAR and the mutants was performed in X10 cells (Stratagene). Cultures of 50 ml of 2×TY medium containing ampicillin (100 μg/ml) were grown at 37° C. with shaking until OD600=3 and then induced with 0.4 mM IPTG. Induced cultures were incubated at 25° C. for 4 h and then cells were harvested by centrifugation at 13,000×g for 1 min (aliquots of 2 ml) and stored at ±20° C. For the assays, cells were broken by freeze-thaw (five cycles), resuspended in 500 μl of buffer [20 mM Tris pH 8, 0.4 M NaCl, 1 mM EDTA and protease inhibitors (Complete™, Roche)]. After an incubation for 1 h at 4° C. with 100 μg/ml lysozyme and DNase I (Sigma), samples were solubilized with 2% DDM on ice for 30 minutes. Insoluble material was removed by centrifugation (15,000×g, 2 min, 4° C.) and the supernatant was used directly in radioligand binding assays.
Single point binding assays contained 20 mM Tris pH 8, 0.4 M NaCl, 1 mM EDTA, 0.1% DDM (or corresponding detergent) with 50 nM [^3H]-DHA and 20-100 μg membrane protein in a final volume of 120 μl; equilibration was for 1 h at 4° C. Thermostability was assessed by incubating the binding assay mix, with or without [^3H]-DHA at the specified temperature for 30 minutes; reactions were placed on ice and [^3H]-DHA added as necessary and equilibrated for a further hour. […] Radioactivity was counted on a Beckman LS6000 liquid scintillation counter and data were analyzed by nonlinear regression using Prism software (GraphPad).
Data set [2] in a line: Thermostability of A2aR and mutants (ligand binding after or during heating). It counts as physicochemical. The note with it: for Tm +agonist / Tm +antagonist / Tm −agonist / Tm −antagonist: 1% DDM (no glycerol); for Tm +agonist: agonist-occupied state; for Tm +antagonist: antagonist-occupied state; for Tm −agonist / Tm −antagonist: apo-state; for Tm −agonist: agonist binding; for Tm −antagonist: antagonist binding; for Tm: ZM241385 bound; for thermostability measured with 3H-NECA (agonist): Ligand(−) format, binding after the heating step. In a few lines: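 Thermostability of wild-type and site-directed mutant A2aR assessed by agonist or antagonist binding either after heating (ligand(−) format) or during heating with ligand present (ligand(+) format); stability expressed as Tm.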

Data set [3] is described as follows: Stability of wild-type and mutant A2aR in different detergents. Format: physicochemical. Further details: key: It was not possible to determine the Tm for some receptor-detergent combinations, because the receptor was too unstable (†).
Data set [4] in a line: Thermostability of β adrenergic receptors expressed in mammalian cells, minus-ligand format. The note with it: 0.1% dodecylmaltoside, apo-state heated, 3H-DHA added after.
Excerpt: The resulting mutants were transiently expressed in mammalian cells, solubilised in 0.1% dodecylmaltoside and assayed for thermostability in the minus-ligand format (heating the apo-state, quenching on ice, adding 3H-DHA).
The next data set concerns the target Rant 21 (Homo sapiens, UniProt P29274, A54L/K122A/T88A/V239A). Put plainly: Competition assay against [3H]ZM241385, detergent-solubilised receptor. It counts as binding. The note with it: versus wild-type A2aR.

Chain of βAR-m23 (P07700 34-424 R68S/M90V/C116L/Y227A/A282L/F327A/F338M): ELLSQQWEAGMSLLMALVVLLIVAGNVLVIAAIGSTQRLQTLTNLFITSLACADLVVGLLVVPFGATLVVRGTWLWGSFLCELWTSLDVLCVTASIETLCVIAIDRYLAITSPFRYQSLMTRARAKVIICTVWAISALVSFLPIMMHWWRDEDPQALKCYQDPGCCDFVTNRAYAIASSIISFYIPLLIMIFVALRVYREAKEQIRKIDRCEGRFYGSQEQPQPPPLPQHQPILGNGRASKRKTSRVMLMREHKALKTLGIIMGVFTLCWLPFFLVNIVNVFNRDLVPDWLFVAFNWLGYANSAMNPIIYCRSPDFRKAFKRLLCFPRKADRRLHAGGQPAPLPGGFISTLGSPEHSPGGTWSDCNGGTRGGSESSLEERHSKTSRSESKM

As for “1-[4,6-propyl-^3H]-dihydroalprenolol [[^3H]-dihydroalprenolol]”, the Kd at βAR-m23 (membranes, n=2) turned out to be 6.5 ± 0.2 nM; at βAR-m23 (semipurified receptor) it was 12.5 nM.
As for M90A: βAR34-424 point mutant, in data set [1] (DDM), the “increase in Tm compared to βAR34-424” value came to 8 °C.
“Wildtype A2aR: human adenosine A2a receptor, parent”: the “Tm +agonist” value in data set [2] stood at 29 °C. Moreover, in data set [2], the “Tm +antagonist” value came out at 32 °C. Besides, the “Tm −agonist” value in data set [2] is 21 °C. Also, the “Tm −antagonist” value in data set [2] was found to be 31 °C. The Tm in data set [2] came to 31 °C. Also, the “Tm Agonist-binding” value in data set [3] (0.003% LDAO) was 28 °C; in data set [3] (0.006% FC12), 37 °C; in data set [3] (0.01% DDM) it was 27 °C; in data set [3] (0.1% DM) it was 23 °C; in data set [3] (0.3% NG), “†”; in data set [3] (0.3% NM) it was 22 °C. Also, the “Tm Agonist-binding” value in data set [3] (0.6% OG) is less than 9 °C. Moreover, the “Tm Antagonist-binding” value in data set [3] (0.003% LDAO) was 32 °C; in data set [3] (0.006% FC12), 43 °C; in data set [3] (0.01% DDM), 25 °C; in data set [3] (0.1% DM) it was 10 °C; in data set [3] (0.3% NG), “†”; in data set [3] (0.3% NM), less than 4 °C. Also, the “Tm Antagonist-binding” value in data set [3] (0.6% OG) is “†”.
As to human β1: human β1 adrenergic receptor, the “apparent Tm” value in data set [4] is approximately 12 °C.
Consider “m6-4: βAR34-424 mutant R68S, Y227A, A234L, A282L”, for which the Tm in data set [1] is 41.6 ± 0.1 °C.
On the same count and under the same terms, the figure for “m6-5: βAR34-424 mutant R68S, A234L, A282L, A334L” is 41.9 ± 0.5 °C; for “m6-9: βAR34-424 mutant R68S, Y227A, A234L, A282L, A334L” it is 43.7 ± 0.4 °C; for “m6-10: βAR34-424 mutant R68S, Y227A, A282L, A334L” it is 47.4 ± 1.1 °C.
Same read-out and setting: under “m7-1: βAR34-424 mutant M90V, A282L, F338M” stands 43.0 ± 0.8 °C; under “m7-7: βAR34-424 mutant M90V, Y227A, F338M”, 45.2 ± 2.0 °C; under “m10-4: βAR34-424 mutant R68S, M90V, V230A, A334L”, 46.9 ± 1.0 °C.
As for “m20: βAR34-424 mutant R68S, M90V, F327A, A334L”, in data set [1], the Tm came out at 48.4 ± 0.7 °C.
For “turkey β1: turkey β1 adrenergic receptor transiently expressed in mammalian cells”, in data set [4], the “apparent Tm” value came out at 23 °C.

B1: Rant 21: A2aR mutant A54L, T88A, V239A+K122A (protein, UniProt P29274 1-412, looked up, variant A54L T88A V239A K122A)
Adenosine receptor A2a: MPIMGSSVYITVELAIAVLAILGNVLVCWAVWLNSNLQNVTNYFVVSLAAADILVGVLAIPFAITISTGFCAACHGCLFIACFVLVLAQSSIFSLLAIAIDRYIAIRIPLRYNGLVTGTRAAGIIAICWVLSFAIGLTPMLGWNNCGQPKEGKNHSQGCGEGQVACLFEDVVPMNYMVYFNFFACVLVPLLLMLGVYLRIFLAARRQLKQMESQPLPGERARSTLQKEVHAAKSLAIIAGLFALCWLPLHIINCFTFFCPDCSHAPLWLMYLAIVLSHTNSVVNPFIYAYRIREFRQTFRKIIRSHVLRQQEPFKAAGTSARVLAAHGSDGEQVSLRLNGHPPGVWANGSAPHPERRPNGYALGLVSGGSAQESQGNTGLPDVELLSHELKGVCPEPPGLDDPLAQDGAGVS
B1: in data set [2], the “Tm +antagonist” value amounted to 49 °C. Further, the “Tm −antagonist” value in data set [2] was 41 °C. The Tm in data set [2] is 49 °C. Besides, the “Tm Antagonist-binding” value worked out at 42 °C in data set [3] (0.003% LDAO); 49 °C in data set [3] (0.006% FC12); 39 °C in data set [3] (0.01% DDM); 28 °C in data set [3] (0.1% DM); 22 °C in data set [3] (0.3% NG); 25 °C in data set [3] (0.3% NM). Also, the “Tm Antagonist-binding” value in data set [3] (0.6% OG) was found to be 23 °C. Moreover, the “agonist binding weaker than parent” value in the data set with Rant 21 is reported as 2-4 orders of magnitude.

B2: R199A: A2aR point mutant (protein, UniProt P29274 1-412, looked up, variant R199A)
Adenosine receptor A2a: B1 Adenosine receptor A2a with L54A, A88T, A122K, R199A, A239V
For B2, in data set [2], the “thermostability measured with 3H-NECA (agonist)” value (from here on “thermostability measured”) is recorded as “improved thermostability”.

B3: A184L: A2aR point mutant (protein, UniProt P29274 1-412, looked up, variant A184L)
Adenosine receptor A2a: B1 Adenosine receptor A2a with L54A, A88T, A122K, A184L, A239V
Take B3: in data set [2], the “thermostability measured” value was “improved thermostability”.

B4: Rant 5: A2aR mutant A54L/T88A/V239A (protein, UniProt P29274 1-412, looked up, variant A54L T88A V239A)
Adenosine receptor A2a: B1 Adenosine receptor A2a with A122K
Consider B4, for which, in data set [2], the “Tm +antagonist” value was determined as 46 °C and the “Tm −antagonist” value was found to be 42 °C.

B5: L167A: A2aR point mutant (protein, UniProt P29274 1-412, looked up, variant L167A)
Adenosine receptor A2a: B1 Adenosine receptor A2a with L54A, A88T, A122K, L167A, A239V
For the molecule B5, in data set [2], the “thermostability measured” value was “improved thermostability”.

B6: Rag 1: A2aR mutant A184L/R199A/L272A (protein, UniProt P29274 1-412, looked up, variant A184L R199A L272A)
Adenosine receptor A2a: B1 Adenosine receptor A2a with L54A, A88T, A122K, A184L, R199A, A239V, L272A
As to B6, in data set [2], the “Tm +agonist” value amounted to 34 °C and the “Tm −agonist” value was found to be 26 °C.
